Measured values from patent US20070253950A1.
Numbering of substitutions follows the chain as printed.

B1: XT-M4-V10 (antibody, from a related filing, V domains shown)
VH: EVQLVESGGGLVQPGGSLRLSCAASGFTFNNYWMTWVRQAPGKGLEWVASIDNSGDNTYYPDSVKDRFTISRDNAKNSLYLQMNSLRAEDTAVYYCARGGDITTGFDYWGQGTLVTVSS
VL: DIQMTQSPSSLSASVGDRVTITCRASQDVGIYVNWFQQKPGKAPKRLIYRATNLADGVPSRFSGSGSGTDFTLTISSLQPEDFATYYCLEFDEHPLTFGGGTKVEIK
B2: XT-M4-V14 (antibody, from a related filing, V domains shown)
VH: B1 VH
VL: B1 VL with G66R
B3: XT-M4-V11 (antibody, from a related filing, V domains shown)
VH: B1 VH
VL: B1 VL with K45R, G66R

molecular target: human RAGE-strep tag fusion protein (human) (UniProt Q15109); assay: BIACORE capture assay: hRAGE-SA over antibody captured on anti-human Fc; steady state affinity; FC4
Sequence (Q15109 other isoform, or with tags, fused parts or gaps): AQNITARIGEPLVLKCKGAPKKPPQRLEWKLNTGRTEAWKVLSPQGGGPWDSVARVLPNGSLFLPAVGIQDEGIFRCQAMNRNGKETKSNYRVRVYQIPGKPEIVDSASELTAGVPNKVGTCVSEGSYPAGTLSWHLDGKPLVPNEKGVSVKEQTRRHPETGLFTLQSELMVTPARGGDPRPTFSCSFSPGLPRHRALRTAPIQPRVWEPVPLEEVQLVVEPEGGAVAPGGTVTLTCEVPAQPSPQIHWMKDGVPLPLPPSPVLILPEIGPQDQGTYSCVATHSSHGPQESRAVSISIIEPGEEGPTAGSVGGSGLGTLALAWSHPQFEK

Row | Binder | Kd
1 | B1 | 26 nM
2 | B2 | 16 nM
3 | B3 | 17 nM

molecular target: murine RAGE-strep tag fusion protein (murine) (UniProt Q62151); assay: BIACORE capture assay: mRAGE-SA (SA-Mu RAGE) over antibody captured on anti-human Fc; 1:1 Langmuir global fit; FC2
Sequence (Q62151 other isoform, or with tags, fused parts or gaps): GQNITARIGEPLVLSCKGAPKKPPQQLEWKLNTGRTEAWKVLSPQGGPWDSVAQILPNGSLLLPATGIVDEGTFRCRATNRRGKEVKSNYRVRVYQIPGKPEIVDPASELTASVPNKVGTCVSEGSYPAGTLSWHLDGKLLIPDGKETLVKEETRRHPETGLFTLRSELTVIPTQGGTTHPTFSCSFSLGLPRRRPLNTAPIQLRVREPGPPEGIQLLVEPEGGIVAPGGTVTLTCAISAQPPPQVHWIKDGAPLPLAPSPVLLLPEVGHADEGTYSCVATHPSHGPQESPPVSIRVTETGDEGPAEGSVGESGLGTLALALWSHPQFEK

Row | Binder | Kd | koff | kon
4 | B1 | 3 nM | 0.0078 s⁻¹ | 2.6e+06 M⁻¹ s⁻¹
5 | B2 | 2 nM | 0.0043 s⁻¹ | 2.2e+06 M⁻¹ s⁻¹
6 | B3 | 2 nM | 0.0043 s⁻¹ | 2.2e+06 M⁻¹ s⁻¹

molecular target: human RAGE-strep tag fusion protein (human) (UniProt Q15109); assay: BIACORE capture assay: hRAGE-SA over antibody captured on anti-human Fc; 1:1 Langmuir global fit; FC4

Row | Binder | Kd | koff | kon
7 | B1 | 20.3 nM | 0.0704 s⁻¹ | 3.47e+06 M⁻¹ s⁻¹
8 | B2 | 13.2 nM | 0.0661 s⁻¹ | 5.02e+06 M⁻¹ s⁻¹
9 | B3 | 13 nM | 0.041 s⁻¹ | 3.2e+06 M⁻¹ s⁻¹

molecular target: human RAGE-strep tag fusion protein (human) (UniProt Q15109); assay: BIACORE capture assay: hRAGE-SA over antibody captured on anti-human Fc; 1:1 Langmuir global fit; average of FC2-FC4

Row | Binder | Kd | koff | kon
10 | B1 | 23.4 nM | 0.0457 s⁻¹ | 2.3e+06 M⁻¹ s⁻¹
11 | B2 | 12.9 nM | 0.0497 s⁻¹ | 3.88e+06 M⁻¹ s⁻¹
12 | B3 | 12.5 nM | 0.0374 s⁻¹ | 3.01e+06 M⁻¹ s⁻¹

molecular target: murine RAGE-strep tag fusion protein (murine) (UniProt Q62151); assay: BIACORE capture assay: mRAGE-SA (SA-Mu RAGE) over antibody captured on anti-human Fc; 1:1 Langmuir global fit; FC3

Row | Binder | Kd | koff | kon
13 | B1 | 2.9 nM | 0.0076 s⁻¹ | 2.6e+06 M⁻¹ s⁻¹
14 | B2 | 1.9 nM | 0.004 s⁻¹ | 2.1e+06 M⁻¹ s⁻¹
15 | B3 | 2 nM | 0.0042 s⁻¹ | 2.1e+06 M⁻¹ s⁻¹

molecular target: human RAGE-strep tag fusion protein (human) (UniProt Q15109); assay: BIACORE capture assay: hRAGE-SA over antibody captured on anti-human Fc; 1:1 Langmuir global fit; FC3

Row | Binder | Kd | koff | kon
16 | B1 | 18.2 nM | 0.0569 s⁻¹ | 3.13e+06 M⁻¹ s⁻¹
17 | B2 | 11.7 nM | 0.0464 s⁻¹ | 3.96e+06 M⁻¹ s⁻¹
18 | B3 | 12 nM | 0.039 s⁻¹ | 3.4e+06 M⁻¹ s⁻¹

molecular target: human RAGE-strep tag fusion protein (human) (UniProt Q15109); assay: BIACORE capture assay: hRAGE-SA over antibody captured on anti-human Fc; 1:1 Langmuir global fit; FC2

Row | Binder | Kd | koff | kon
19 | B1 | 31.8 nM | 0.00972 s⁻¹ | 306000 M⁻¹ s⁻¹
20 | B2 | 13.8 nM | 0.0366 s⁻¹ | 2.66e+06 M⁻¹ s⁻¹
21 | B3 | 13 nM | 0.033 s⁻¹ | 2.5e+06 M⁻¹ s⁻¹

molecular target: human RAGE-strep tag fusion protein (human) (UniProt Q15109); assay: BIACORE capture assay: hRAGE-SA over antibody captured on anti-human Fc; steady state affinity; FC2

Row | Binder | Kd
22 | B1 | 25 nM
23 | B2 | 16 nM
24 | B3 | 16 nM

molecular target: murine RAGE-strep tag fusion protein (murine) (UniProt Q62151); assay: BIACORE capture assay: mRAGE-SA (SA-Mu RAGE) over antibody captured on anti-human Fc; 1:1 Langmuir global fit; FC4

Row | Binder | Kd | koff | kon
25 | B1 | 3 nM | 0.0078 s⁻¹ | 2.6e+06 M⁻¹ s⁻¹
26 | B2 | 2 nM | 0.0041 s⁻¹ | 2.1e+06 M⁻¹ s⁻¹
27 | B3 | 2 nM | 0.0041 s⁻¹ | 2e+06 M⁻¹ s⁻¹

molecular target: human RAGE-strep tag fusion protein (human) (UniProt Q15109); assay: BIACORE capture assay: hRAGE-SA over antibody captured on anti-human Fc; steady state affinity; FC3

Row | Binder | Kd
28 | B1 | 24 nM
29 | B2 | 15 nM
30 | B3 | 15 nM

molecular target: murine RAGE-strep tag fusion protein (murine) (UniProt Q62151); assay: BIACORE capture assay: mRAGE-SA (SA-Mu RAGE) over antibody captured on anti-human Fc; 1:1 Langmuir global fit; average of FC2-FC4

Row | Binder | Kd | koff | kon
31 | B1 | 3 nM | 0.0077 s⁻¹ | 2.6e+06 M⁻¹ s⁻¹
32 | B2 | 2 nM | 0.0042 s⁻¹ | 2.1e+06 M⁻¹ s⁻¹
33 | B3 | 2 nM | 0.0042 s⁻¹ | 2.1e+06 M⁻¹ s⁻¹

molecular target: human RAGE-strep tag fusion protein (human) (UniProt Q15109); assay: BIACORE capture assay: hRAGE-SA over antibody captured on anti-human Fc; steady state affinity; average of FC2-FC4

Row | Binder | Kd
34 | B1 | 25 nM
35 | B2 | 16 nM
36 | B3 | 16 nM
